The data set concerns the target E. coli DNA polymerase I (Escherichia coli, UniProt P00582 P00582:1-928). The data set is described as follows: EMSA; Kd stated as determined from binding curves but value not given; RNA 50 nM, pol 0-80 nM, 10 mM KCl, 1 mM DTT, 5% glycerol, pH 7.0. The note with it: tags: New England Biolabs; label: body-labeled 32P. The method, then:
A mixture (5 μL) containing bodily ³²P-labeled RNA 69-mer (50 nM, final), DNA polymerase I (0, 20, 40, 60, or 80 nM), and binding buffer (final: 10 mM KCl, 1 mM DTT, 5% glycerol, pH 7.0) was incubated at room temperature for 30 minutes and then placed at 4° C. overnight. The binding solutions were mixed with the gel loading dye (final: 10 mM KCl, 1 mM DTT, 5% glycerol, 0.001% xylene blue w/v) and then loaded on 10% non-denaturing polyacrylamide gel in the running buffer (5 mM Tris-HCl, 10 mM EDTA, and pH 7.5). The gel was pre-run for 1 hour at 250 volts. After loading the samples, the gel was run with a constant voltage (250 volts) for one hour; all operations were performed in 4° C. cold room. The gel was fixed with 7% acetic acid (in methanol), dried, and scanned. The radioactive bands were quantified by phosphorimager using image quantifying software. […] Dissociation constant was determined from the binding curves.
A mixture (5 μL) containing bodily ³²P-labeled RNA 69-mer (50 nM, final), DNA polymerase I (0, 20, 40, 60, or 80 nM), and binding buffer (final: 10 mM KCl, 1 mM DTT, 5% glycerol, pH 7.0) was incubated at room temperature for 30 minutes and then placed at 4° C. overnight. […] The radioactive bands were quantified by phosphorimager using image quantifying software. […] Dissociation constant was determined from the binding curves.
A general note: A gel shift assay detects complexes by their altered migration in electrophoresis.

Sequence of E. coli DNA polymerase I (P00582 whole entry, one chain of several): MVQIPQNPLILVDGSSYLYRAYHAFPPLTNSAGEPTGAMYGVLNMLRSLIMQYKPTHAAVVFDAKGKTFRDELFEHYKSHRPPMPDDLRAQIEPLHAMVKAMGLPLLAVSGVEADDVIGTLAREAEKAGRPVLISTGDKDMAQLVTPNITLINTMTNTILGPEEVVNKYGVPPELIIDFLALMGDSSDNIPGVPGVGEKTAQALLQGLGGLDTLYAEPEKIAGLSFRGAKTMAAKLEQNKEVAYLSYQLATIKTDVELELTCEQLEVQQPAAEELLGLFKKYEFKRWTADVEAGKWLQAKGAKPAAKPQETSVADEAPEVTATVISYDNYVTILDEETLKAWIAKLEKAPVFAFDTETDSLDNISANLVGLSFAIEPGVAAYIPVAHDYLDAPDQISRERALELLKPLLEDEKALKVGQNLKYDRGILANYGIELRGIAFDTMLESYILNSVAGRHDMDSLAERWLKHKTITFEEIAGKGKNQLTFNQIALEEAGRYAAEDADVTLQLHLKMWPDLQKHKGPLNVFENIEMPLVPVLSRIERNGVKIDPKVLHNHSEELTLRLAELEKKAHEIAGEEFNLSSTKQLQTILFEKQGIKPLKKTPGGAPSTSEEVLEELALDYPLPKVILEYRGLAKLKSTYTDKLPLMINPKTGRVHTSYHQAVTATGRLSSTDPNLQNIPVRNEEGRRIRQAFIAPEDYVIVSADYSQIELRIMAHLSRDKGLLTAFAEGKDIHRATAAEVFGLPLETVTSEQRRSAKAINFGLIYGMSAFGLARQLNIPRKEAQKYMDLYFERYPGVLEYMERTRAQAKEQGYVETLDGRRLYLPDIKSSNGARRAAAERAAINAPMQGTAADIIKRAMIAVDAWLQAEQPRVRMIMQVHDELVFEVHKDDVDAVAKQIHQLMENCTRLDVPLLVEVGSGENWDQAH

B1: RNA-69mer (ssRNA)
RNA: GGGAGCCCUGUCACCGGAUGUGCUUUCCGGUCUGAUGAGUCCGUGAGGACAAAACAGGGCUCCCGAAUU
Take B1: the binding result is on record as “binds”.

These data come from patent US20160281093, “METHODS AND COMPOSITIONS FOR INTERFERENCE WITH DNA POLYMERASE AND DNA SYNTHESIS” (GEORGIA STATE UNIVERSITY RESEARCH FOUNDATION, INC., published 2016).
